# Experiment: soluble on expression in E. coli; label from the status in PepcDB or PDB records
row,Sequence,soluble on expression in E. coli
1,MGSDKIHHHHHHMTTPLLEINDLVVSYQTAKGLVHAVNNVSLEVHPGQITAIVGESGSGKSTTAQAVIGLLADNAEVDSGRISFNGRSLVGLNAREWKNVRGTKIGLIPQDPNNSLNPVKTIGASVGEGLAIHKRGTAAERKKKVIELLERVGIDNPEVRYDQYPHELSGGMKQRALIAAAIALEPELIIADEPTSALDVTVQKIILDLLEDMQRELGMGILFITHDLAVAGDRADRIVVMQKGEVRESGYAASVLTDPQHEYSKKLLADAPSLTIGEIPTRVPAVDPEVAQAKGPLLVVDKFRKEHQRGKEGAFVAANDISFEVLPGTTHAIVGESGSGKTTLGRAIAMFNTPTSGSISVSGKDITNLSKAQQRELRQQIQLVYQNPYSSLDPRQTIGSTIAEPLRNFTKVSKQEADEKVAHYLELVALDPALATRRPRELSGGQRQRVAIARAMILEPELVVFDEAVSALDVTVQAQILRLLDDLQRELGLTYVFISHDLAVVREISDTVSVMSRGNQVELGKTAEVFNNPQTDFTRRLIDAIPGSRYRGGELNLGL,not soluble
2,MGSDKIHHHHHHMTTSTPSASPLALSPSRANDYQQCPLLYRFRAIDKLPEPKTVAQVKGTLVHAVLEEMHGWPRNERLFPAAVKRLKPHWSLMCSKDTELVSLVPEEDTYDFLVECRSLLRGYFEMENPQGFDALACEMYVNATLPNGVPIRGFIDRVDKAPTGEIRVVDYKTGKKPIPRFSQQAQFQMRFYALVYWRIYGRIPDQLRLMYLKVADSMFLTPSREELEYFERDIQELWEKIVTDGETGQFRPKTSKLCGWCSFQNLCPAFDGTPPAYPGWPGIADAPPCSTVDASKGLTG,not soluble
3,MGSDKIHHHHHHMTTSYTITCSRPTNYGAVLQTYGLNTALRKMGVDAKVLDYNPKYYYTSTQPLPIRMVRAVVRFPDLTKGRKVFGKFLEDYVPMSAKTYRTLAEIEADVPQADVYICGSDQIWNCKNKLNGKDDAFFLSFAPAKARKVAYAASIAMPEIPNNQKTRYHRLISDFDAVSVREPSSVPMLEDLGIDNVQSVIDPVFLLERNDWDVIADASDFVPTEDYVLVYGYNRQKDVYAYARRLAKKLGVKVYTIGTAIEDYTLDQDRYFWNASPNTFVNLVRNAKAVVTNSFHGTVFSIVYNKPFHFFTVKQTTNSRMLDLLDSLTLKDRHVVGEELLSNDIDYDRPNQLLAEAKKRSLGFLQTNVASYVSENKPMKG,not soluble
4,MGSDKIHHHHHHMTTTKKTGERLIKKYPNRRLYDTETSTYITLTDVKQLVLEQEDFKVIDAKSSEDLTRSILLQIILEEESGGVPMFSSSMLSQIIRFYGHAMQGMMGTYLEKNIQAFIDIQSKLADQSKNLYENNAMNPEVWSQFMNMQAPMMQGMMTSYIEQSKNMFVQMQEQMQNQAKTMFSSFPFKPATPPGSEPEKK,not soluble
5,MGSDKIHHHHHHMTTVYSGLISCYNAYPKKHSYRVRRSDKGWHDGAVWYLEKAKIMLRNDNLKIKGLTPEQEENVRAIHAMNPAHILVECATNKSWGGKKELSDLDLDSYKKAADTLYEEGFGLCIRYNRQTSIKEFIQQIVDHIGAAQYDNVETGKQTIKLIRRDYKPEDLPVFNYDNGILSVRDDDSGATDKQPNQVIVKYREPVSNRDDQAIANNIASVRMHGVISKTVEYKGVPTFDLAARLARDLELVASGLTRLKIVFDMRASELKPGDVVRVNLPDRDIVDVVFRVGKLENGNDGEIIATCIQDVFGLPAANYSTQKGESLYIPPDYTANPIQQARLIEVPYHVLPLVLSDAERAFVKPTDCFVWALGAQPTALSVGYDMLVDVGGGYTQTATGSFTPFVRLLEPVSPYQTNIKIKLEGDYAAVAGALALIVDDEIIKIDAVDFKTGTMTVGRGCADTVPQAHKADAVAWCYLLAAGTDESKYTVNERLNVKLLTRTAQQTLDESKAEVLTLTTQQRQARPFCVELGVPRPRRTSGQTDSALGRQHAPRRWRQL,not soluble
6,MGSDKIHHHHHHMTTYSPSQENYRELAHLLARFTSLTQIKTIFYDFTGILLKDDFVYINHSAIEDNLAQLTFSDYAVFPVSRNIQMWGAILCESVNVSKKRLFLSRSYLENLMTQIFDEDTLGKVSVWEPLTSDQVGQINNLHALFHPTGDTDPLQAVLAPNAVIAGHTIDNDEAFRSISLAIDYIQKNIQRPISLNEVAQRAYLSPSYLSRLFKKYLHVNFIEYVNNQKIALAQEKLSLTLTPINQISNQIGFTQTSYFTKIFKKKTGITPSEFRQRNHTIQKIYTIPRELNWDTNDSVIDVTKNYFKSHHITYHTDSEEGATYVNSIGELNDAKGNRGWIYTVDGQQPTQSADEIATHDKSVIQWVYTDYSN,not soluble
7,MGSDKIHHHHHHMTYDYTEPTLSAKGQRMRDILADYIALISHRLPDDVTAKLEELSKIEVDPLQKLVYDTMMENQLLANKLKRPSCQDTGALQFFIKCGAQFPLLGELNQILKDAVYRGTKKAPLRHNAVQTFDEYNTGMNIGDGIPSIFLQVDGNGTDISMYVYMAGGGCTLPGAAKVLMPGEGYEGVVRFVMDRMTSYGINACPPLLVGVGVATSVETAALNSKLALMRRVDSENPNANAAKLEHLLEDGINHIGLGPQGFGGQKSVMGVNVENTARHPSTIGVAVSTGCWSHRRGLINFDADLNYDLPLNKGVELS,not soluble
8,MGSDKIHHHHHHMTYPKYTQQALSRYNLPRLKRIATELGVTPTGDKRAADTWVNAIIIHQSTKLQKVDNQALAQAELDSYIADQAQAIAPEPLTIVEISFDHHEYYADDKLVASISHDDSHLTQRWVVMINDKEIFRANTLMHCDRFICNHYKDGSLPVQEKEATPSTIENQIMAHIFNECQNYGFEILDDGIYNNGVKLGQVGCTDGNWWVKRRYSVQQQYSNSVLDAVRSLSMLDVSNGGKSIFDEYILDQPLEQLTGDRLQRLLERAELVTA,not soluble
9,MGSDKIHHHHHHMTYPVVLVNVSRNTNAISFPMGLSVVANALLHHDITPQIIDLIPVMPDQRIDYFLRTMPKEPAIYGFSMMIGNFHLDHAEHYARLIKEHSPDSIVVYGGSLPSSVPELLVENCECDFVIHGEGEVVFPAFVKALREGESFPEGPGIFYKGADGQVVGTKAKRMRRLDHLSRQNYSLFDMDFYSGYFKEVGLSWEIMASRGCKAHCSFCYKFMGDGIGLREVGEVLDEIQYIMENYGITKFYFVDENFMQIKKYFYSFLEEKKNRGLNFTFIASSRIDEIDEERISIAKEHGLTALTTGVESVNQATLNAIDKRIDIEDAERAVKLLRQYGIRPHVNLIIGFEWESEDDYKAMLEFIERNDLRGTVKLSYLTPLPATRLYEDAKSRNKLGKPEFEYVRTLGNLYWELMVNMTNMPDELLKHYYALISDVGKETRALPVTPAYRQNLNDDLVMYKTVAAPSPPPAHAAWSLP,not soluble
10,MGSDKIHHHHHHMTYTPFFIHGEDRRSRWLITCDHATNTVPPEICGGDLGLAREDMERHIAYDVGAYEVSRLLGEMLAAPVIAANFSRLVIDPNRGEDDPTLLMKLYDGSIIPGNRHADAAERERRLNMCYRPYHDALARLAARPGVVLVSMHSFTRQLRGRAPRPWQIGVLHTADQRFSDPLIARLRGEADLCVGVNQPYTGVLPGDAIDTHCTAFGRPNALIELRNDLIGDPAGQHAWAERLAPLLQDALADSGL,not soluble
11,MGSDKIHHHHHHMVAQLETPSANSSLSLPYPIEGLVQVFTSSHRNFFTSVMGQALRIAGQGTPVLIVQFLKGGIKQGQDRPIQLGQNLDWIRCDLPRCIDTPHLDESENQALQKLWLHTQQVVDEDKYSLVVLDELSLAIHFGLIPESDVLAFLAKRSPHVDIIFTGTEMPQSILDVADQITEIRRSHCP,not soluble
12,MGSDKIHHHHHHMVIAVRRILIREEYCMGCKLCEINCVAAQVGTGNLIKVYRYVPELPEPNVIVEEHDYVTFALQCRNCDDPSCLKACMTGAMHRDPKTGAIRVNQEKCVGCWMCVMACPFGVIRRNTKEKKVASKCDLCADRGTPGCVEGCPNEALVLVEVRE,not soluble
13,MGSDKIHHHHHHMVKLLLICLATIVMISCGSEQEKLTVYIPDTCTDTLQYEIYLPEEEGLNIFYDLCVTDSFCAFLDTRNDTLLKIFTATIPPALVGLGMKGEGPDDFLFPFFEKSIGREGKGKLSFIELNSWNKKIVAIHSAASPAPVAVSVVEAQQLPEMPVVRDYNETDSCVYGIDVDMQHGLFFIYDKHTARVKTVDYHRDIRSGYPEGHLSYLYESCLMVNQDAKAACMGLLNLNSLCFYDLKGNLMKEIVIGKELKSPEYDPEFLDFPNAPKYFISLCGTPNYLYALYNGFPGTSGKSKIMVFTWQGAPVAIYQTDVKLERIAVAPSGRYVLGLNITEEGGSDVLKFEL,not soluble
14,MGSDKIHHHHHHMVMEVIKVKYKAFDVGAVSYNTDTQMGSFEYFPSFIKTGIELSPIKMPLAKNIYSFPQLDQNTFKGLPGLIADSLPDDFGNAVMNAWIASQGKSTSDITPLQRLQYTGMRGMGALTYSPATKRKNLNASQPIHIESLVSIAQDVLDKRQQFSVDLENNGQEDKEAMMSLMSVGMSAGGARPKAVLAFNNDLTQVRSGQTDAPEGFTHYLMKFDGVSEHNKNQETFGDPMGYGAMEYTYHILAKECGIDMMPCHLLNEGKRRHFITERFDRNGNDKIHVQTLNGLEHVSYKQIGSYSYAELFNTARKLKLSPDDAMQLFKRMVFNVISRNHDDHAKNFGFMLDKDHKWQLAPAYDLAYSYKPDSHWVSKHWMTLNGKQDNFTRDDFYSFEKLSPIFSKRKIDDVLNQTIEAVSQWDKYAAEHAVPNSLIKEISQNLRLFL,not soluble
15,MGSDKIHHHHHHMVMGDITRIDTVQQYCDLFEVEALHPLVSVVNCYEVQPIRHSKKLYNIYAVLLKDTDCGTMNYGRSLYDYEKGSMLFIAPGQVMGSDDDGSLHQPAGWALMFHPELLRGTSLAHIIKEYSYFSYNANEALHLSEQERKVVIECINNVAEELRHPIDKHSRSLIIDTMKLLLDRCIRFYDRQFITRENANNDLLARFELLLNNYYHSALPTSKGIPTVQYCADQLCLSTNYFSDLVKKETGMSAIKHIQQKIMDIAKERIMNTQKSISQISDEMGFQYPQHFTRWFKKMEGCTPNEYRNEIIKQAIN,not soluble
16,MGSDKIHHHHHHMVNQNQWRQWGCKVIDIEKAALEHLYQFVDSDAFSQACELILQCKGKVIVMGMGKSGHIGNKISATLASTGTPAFFVHPGEASHGDLGALAKEDIILAISNSGESSEILTLLPVIQRMGVPVIAITGKPESNMAKLAKIHLCIQVPEEACPLGLAPTSSTTATLVMGDALAVALLQAKGFTQDDFALSHPGGSLGRKLLLKVSDVMHQDDRLPCVPHDICITEALYEISKKGLGMTAVVDANQCLVGIFTDGDLRRVIDAEVNLRTTPIEQVMTKNCVTTTAGILAAQALQVMESKNINGLIVVNEQQQPIGALNMLDMVKAGVI,not soluble
17,MGSDKIHHHHHHMVREPASTLLPPTSPATPAPHRLLIGRRGMVPTGANVIWKIQSGLVRSSTWGEEGDMISLGLWGPGDLIGRPLSCLDPYELECLTAVEVVAVSDPALESHESLVRSLRYTERLLSITRLRRAEAKLASLLGWIGERFGQPGATGWEIDLRRIPLTHQVIAELSGSTRVTTTRLLGEFRQAGRIHRRDRALIVRYPETLYPPARLSA,not soluble
18,MGSDKIHHHHHHMVRLAVVGLGKMGLSHYAMINAHPDVKVEAVCDSTGYVLDVLNKYTGVRTYTDFDVMLRDIELDAVIIATPSRSHGQMVEVALNENLHVFCEKPFCLDITEGERLARIAAERGLVNQVGYHNRFVGAFQEVKRLLDAGAIGAVTHVLAEAYGPVVLKPKGSTWRTQRTEGGGCLYDYAAHPINLVNWYLGAPQSVGGSVLNKIFSKDTEDEVFSTLYYEEGKSVQISVNWSDESYRKMTTKVTIWGTQGRIYADRQECQVYIRDGVNIPAGYQRGWNVRYTTDLTEAVWFYLRGEEYSAQLDYFVRCIEEKEGGGNINSFEEAVITDRVMSMMVADAEKRPPVTSGIAPRQAPGKKFGLLFGGRKAVS,not soluble
